The text below walks through data of publication PMC12613146.

This test deals with ectodomain of the epidermal growth factor receptor, EGFR25-645 (human). Briefly: BLI; biotinylated ligand (50 nM, 5 min) on streptavidin sensors, DDM proteomicelles of the membrane protein in the wells (six two-fold dilutions); 20 mM Tris-HCl, 300 mM KCl, 0.2% (w/v) DDM, 1 mg/ml BSA, pH 7.5; 22 °C; global fits, KD = koff/kon. Background: BLI is a label-free optical method that tracks binding on a fibre tip over time.

Values joined by “and” are separate entries in the source; they are usually repeats but may differ in a detail not shown here. Identical values can stand only once.

Chain of TGF-α(GGS)2tFhuA (chain): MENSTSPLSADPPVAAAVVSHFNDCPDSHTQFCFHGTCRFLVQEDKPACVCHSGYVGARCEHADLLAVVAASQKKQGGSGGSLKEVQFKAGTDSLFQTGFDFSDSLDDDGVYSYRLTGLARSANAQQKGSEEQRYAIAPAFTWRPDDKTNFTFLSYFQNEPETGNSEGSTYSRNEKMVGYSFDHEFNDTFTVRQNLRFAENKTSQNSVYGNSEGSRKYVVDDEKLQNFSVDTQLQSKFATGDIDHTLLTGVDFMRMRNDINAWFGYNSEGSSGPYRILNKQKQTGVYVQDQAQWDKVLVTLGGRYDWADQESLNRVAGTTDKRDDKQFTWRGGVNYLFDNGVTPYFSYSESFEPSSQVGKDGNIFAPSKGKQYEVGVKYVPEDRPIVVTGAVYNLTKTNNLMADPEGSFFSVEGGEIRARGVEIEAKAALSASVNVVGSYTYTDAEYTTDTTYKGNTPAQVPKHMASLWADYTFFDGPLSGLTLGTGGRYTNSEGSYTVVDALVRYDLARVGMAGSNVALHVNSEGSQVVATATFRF

For TGF-α(GGS)2tFhuA, the kon is 2600 M⁻¹ s⁻¹ and 2400 M⁻¹ s⁻¹ and 2500 M⁻¹ s⁻¹.

Broadly, the kon is the rate constant with which the complex forms.
